Target: native mVDAC1-GFP (mouse) (UniProt Q60932)
Assay: cell-based or functional assay

native mVDAC1-GFP (mouse), sequence (Q60932 14-296): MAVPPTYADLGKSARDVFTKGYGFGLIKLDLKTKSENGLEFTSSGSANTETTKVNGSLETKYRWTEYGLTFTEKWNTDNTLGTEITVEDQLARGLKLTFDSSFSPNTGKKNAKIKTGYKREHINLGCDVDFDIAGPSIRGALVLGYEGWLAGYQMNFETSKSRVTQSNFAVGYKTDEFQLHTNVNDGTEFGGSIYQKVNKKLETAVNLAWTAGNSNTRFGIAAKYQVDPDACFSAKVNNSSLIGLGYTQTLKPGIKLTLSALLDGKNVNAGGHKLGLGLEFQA

recombinant HK-I over-expressed in cells (pcDNA3.1-HisA-HK-I) (enzyme)
apoptotic cell death of cells over-expressing HK-I and mVDAC1-GFP: < 10%

From US20120214741A1
